# Measurements reported in patent US20240228595A1.
# Tests used:
# [1] = target: SARS-COV-2 Omicron BA.1 spike on HIV-1 based pseudovirus (Example 3) (SARS-CoV-2 Omicron BA.1) (UniProt P0DTC2); experiment: cell-based or functional assay
# [2] = target: SARS-COV-2 Omicron BA.2 spike on HIV-1 based pseudovirus (SARS-CoV-2 Omicron BA.2) (UniProt P0DTC2); experiment: cell-based or functional assay
# [3] = target: SARS-COV-2 Delta RBD (Sino Biological Cat. No. 40592-V08H90) (SARS-CoV-2 Delta) (UniProt P0DTC2); experiment: ELISA, SARS-CoV-2-Delta RBD coated, antibody titrated
# [4] = target: SARS-COV-2 Omicron RBD recombinant protein (Sino Biological 40592-V08H121) (SARS-CoV-2 Omicron BA.1) (UniProt P0DTC2); experiment: ELISA, SARS-CoV-2-Omicron BA.1 RBD coated, antibody titrated
# [5] = target: SARS-COV-2 Omicron BA.2 RBD (AcroBiosystems Cat. No. SPD-C522g) (SARS-CoV-2 Omicron BA.2) (UniProt P0DTC2); experiment: ELISA, SARS-CoV-2-Omicron BA.2 RBD coated, antibody titrated
substance,measurement,setting,value
S309 (Sotrovimab) (antibody),"pseudovirus neutralization, IC50",[1],446 ng/mL
same,"pseudovirus neutralization, IC50",[2],2750 ng/mL
same,"pseudovirus neutralization, fold drop of activity against Omicron BA.2",[2],30 fold
same,EC50,[3],2 ng/mL
same,EC50,[4],6 ng/mL
same,EC50,[5],4 ng/mL
